Test results from the supplement of paper PMC7877785.
± gives the uncertainty stated by the source.

Test: self-splicing fitness, log relative to wild type (ln ratio); higher = more splicing; Tetrahymena group I intron in knt gene, E. coli kanamycin selection, DiMSum; sequences stand for … in CUCUCU…GGAGGGAAAAGUUAUCAGGCAUGCACCUGGUAGCUAGUCUUUAAACCAAUAGAUUGCAUCGGUUUAAAAGGCAAGACCGUCAAAUUGCGGGAAAGGGGUCAACAGCCGUUCAGUACCAAGUCUCAGGGGAAACUUUGAGAUGGCCUUGCAAAGGGUAUGGUAAUAAGCUGACGGACAUGGUCCUAACCACGCAGCCAAGUCCUAAGUCAACAGAUCUUCUGUUGAUAUGGAUGCAGUUCACAGACUAAAUGUCGGUCGGGGAAGAUGUAUUCUUCUCAUAAGAUAUAGUCGGACCUCUCCUUAAUGGGAGCUAGCGGAUGAAGUGAUGCAACACUGGAGCCGCUGGGAACUAAUUUGUAUGCGAAAGUAUAUUGAUUAGUUUUGGAGUACUCGUGGUCG
Procedure, shortened: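 Colonies from six replicate transformations of E. coli BL21(DE3) were pooled and amplicon-sequenced on an Illumina HiSeq 2500. The library placed an intron with all eight P1ex-region nucleotides randomised inside the knt kanamycin-resistance gene on pET-22b(+), and cells grew overnight at 37°C or 30°C on LB agar with or without 25 μg/mL kanamycin (plus 100 μg/mL carbenicillin, 50 μM IPTG, 0.2% rhamnose). Fitness is the DiMSum error-weighted combination of wild-type-normalised replicate fold changes, kanamycin versus none.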

Sequence | self-splicing fitness (ln) (30 °C) | self-splicing fitness (ln) (37 °C)
GUUUAGCAAUAUUACGGGGG | -3.68 ± 0.37 | -1.82 ± 0.26
CCAUAGCAAUAUUACGAGGC | -3.03 ± 0.15 | -3.27 ± 0.21
CAGGAGCAAUAUUACGAGAG | -1.92 ± 0.15 | -1.67 ± 0.17
UGCGAGCAAUAUUACGUGCC | -3.9 ± 0.47 | -2.55 ± 0.33
CUUGAGCAAUAUUACGGUUU | -2.68 ± 0.16 | -2.66 ± 0.29
ACGGAGCAAUAUUACGCAUA | -3.27 ± 0.21 | -2.86 ± 0.22
GGCGAGCAAUAUUACGCCAG | -1 ± 0.18 | -2.71 ± 0.44
UAGAAGCAAUAUUACGAUUU | -0.745 ± 0.067 | -1.11 ± 0.095
GCUGAGCAAUAUUACGCGGA | -4.07 ± 0.35 | -2.82 ± 0.23
CUGAAGCAAUAUUACGGAAA | -3.46 ± 0.26 | -1.43 ± 0.31
GAUCAGCAAUAUUACGAGCG | -1.37 ± 0.08 | -0.0351 ± 0.097
AAUGAGCAAUAUUACGACUC | -1.05 ± 0.13 | -0.904 ± 0.15
CAACAGCAAUAUUACGAUUA | -0.522 ± 0.082 | -0.185 ± 0.082
GUCGAGCAAUAUUACGGACA | -1.8 ± 0.49 | -1.95 ± 0.47
CGGUAGCAAUAUUACGGUAU | -3.77 ± 0.22 | -2.31 ± 0.22
GCACAGCAAUAUUACGUGGC | -4.03 ± 0.18 | -2.74 ± 0.15
CAGUAGCAAUAUUACGCGAU | -2.39 ± 0.28 | -2.67 ± 0.34
AUGUAGCAAUAUUACGGGCG | -1.33 ± 0.091 | -1.28 ± 0.1
ACCCAGCAAUAUUACGGCAC | -0.669 ± 0.079 | 0.0747 ± 0.12
GACUAGCAAUAUUACGGCAG | -2.84 ± 0.14 | -2.49 ± 0.23
UUGUAGCAAUAUUACGAAAU | -3.24 ± 0.46 | -2.15 ± 0.4
CUCGAGCAAUAUUACGCAAA | -2.55 ± 0.33 | -3.66 ± 0.46
AAGCAGCAAUAUUACGAUUC | -1.73 ± 0.081 | -0.707 ± 0.092
AAAAAGCAAUAUUACGUGUG | -1.57 ± 0.049 | -1.27 ± 0.069

Sequence | self-splicing fitness (ln) (30 °C) | self-splicing fitness (ln) (37 °C)
CAUGAGCAAUAUUACGUAUA | -3.31 ± 0.3 | -2.2 ± 0.21
GGUCAGCAAUAUUACGCGUC | -1.46 ± 0.17 | 0.149 ± 0.19
ACAUAGCAAUAUUACGCGGG | -3.09 ± 0.12 | -1.64 ± 0.13
AGGAAGCAAUAUUACGUGCG | -1.01 ± 0.1 | -1.04 ± 0.13
UAGAAGCAAUAUUACGCCGA | -1.47 ± 0.32 | -1 ± 0.25
UAGGAGCAAUAUUACGUUUG | -3.19 ± 0.2 | -1.25 ± 0.22
CCAAAGCAAUAUUACGCUCC | -1.01 ± 0.2 | -1.74 ± 0.36
GCGCAGCAAUAUUACGAGGU | -2.49 ± 0.2 | -1.24 ± 0.25
CUUAAGCAAUAUUACGCCGU | -3.13 ± 0.34 | -1.88 ± 0.37
UCAUAGCAAUAUUACGUGCG | -1.26 ± 0.11 | -0.279 ± 0.1
ACUUAGCAAUAUUACGAAAU | -3.03 ± 0.23 | -1.23 ± 0.2
AAGCAGCAAUAUUACGGCCG | -0.9 ± 0.11 | -0.057 ± 0.17
UACCAGCAAUAUUACGGCAC | -2.09 ± 0.066 | -1.05 ± 0.067
UCUCAGCAAUAUUACGGAAA | -1.45 ± 0.14 | -0.892 ± 0.14
CCUCAGCAAUAUUACGCCCG | -0.527 ± 0.15 | -0.422 ± 0.18
AACCAGCAAUAUUACGUACG | -1.42 ± 0.063 | -0.431 ± 0.067
GUCAAGCAAUAUUACGCUCU | -1.58 ± 0.14 | -1.18 ± 0.14
AUAGAGCAAUAUUACGAAAU | -0.572 ± 0.1 | 0.0653 ± 0.13
UACGAGCAAUAUUACGCGCU |  | -3.38 ± 0.31
CCACAGCAAUAUUACGCCUU | -3.21 ± 0.17 | -1.59 ± 0.14
GCAUAGCAAUAUUACGAACA | -1.61 ± 0.13 | -1.34 ± 0.12
UACUAGCAAUAUUACGGAAG | -3.07 ± 0.26 | -2.91 ± 0.43
UCAAAGCAAUAUUACGUAUG | -2.44 ± 0.12 | -2.05 ± 0.15
UUACAGCAAUAUUACGGAUC | -4.12 ± 0.34 | -2.26 ± 0.2

Sequence | self-splicing fitness (ln) (30 °C) | self-splicing fitness (ln) (37 °C)
AUUCAGCAAUAUUACGGCCC | -0.851 ± 0.16 | -0.422 ± 0.21
AGCUAGCAAUAUUACGUGGA | -3.53 ± 0.2 | -2.04 ± 0.14
GGUGAGCAAUAUUACGCGAG |  | -1.97 ± 0.18
GGCAAGCAAUAUUACGCACC | -2.15 ± 0.32 | -2.31 ± 0.24
UACCAGCAAUAUUACGAUUA | -0.0875 ± 0.065 | 0.118 ± 0.075
UCCAAGCAAUAUUACGAGUG | -2.75 ± 0.13 | -2.03 ± 0.11
CUGCAGCAAUAUUACGUUCA | -3.81 ± 0.2 | -1.97 ± 0.15
UGGGAGCAAUAUUACGCCGC | -2.27 ± 0.47 | 
ACCCAGCAAUAUUACGGAUU | -0.86 ± 0.048 | -0.157 ± 0.061
GCACAGCAAUAUUACGUCCG | -0.402 ± 0.09 | -0.201 ± 0.11
GUAGAGCAAUAUUACGAUGU | -1.04 ± 0.18 | -0.121 ± 0.19
UCUAAGCAAUAUUACGCCGA | -1.12 ± 0.19 | -0.156 ± 0.2
GCCUAGCAAUAUUACGUCGC | -1.46 ± 0.17 | -1.01 ± 0.16
UAACAGCAAUAUUACGCAUA | -0.955 ± 0.075 | -0.0703 ± 0.069
CAAGAGCAAUAUUACGUCGA | -3.3 ± 0.21 | -2.2 ± 0.24
AGGAAGCAAUAUUACGGUCU | -0.784 ± 0.079 | 0.265 ± 0.11
GACGAGCAAUAUUACGGGUC | -3.77 ± 0.21 | -3.28 ± 0.25
AUGUAGCAAUAUUACGCUCG | -0.227 ± 0.078 | 0.00954 ± 0.13
AAACAGCAAUAUUACGAUCA | -0.774 ± 0.07 | -0.178 ± 0.065
AGAGAGCAAUAUUACGACAU | -2.476 ± 0.019 | -1.94 ± 0.037
GACCAGCAAUAUUACGCAAC | -1.35 ± 0.082 | -0.681 ± 0.1
UCCUAGCAAUAUUACGUGGA | -2.37 ± 0.16 | -2.74 ± 0.23
GGCCAGCAAUAUUACGACUU | -0.142 ± 0.084 | 0.435 ± 0.11
ACCUAGCAAUAUUACGUCGU | -0.733 ± 0.045 | -0.455 ± 0.059

Sequence | self-splicing fitness (ln) (30 °C) | self-splicing fitness (ln) (37 °C)
AUAGAGCAAUAUUACGUUCG | -0.386 ± 0.077 | -0.257 ± 0.092
GUUCAGCAAUAUUACGUCCA | -0.981 ± 0.17 | -1.05 ± 0.21
UAUGAGCAAUAUUACGCUGC | -4.14 ± 0.31 | -2.78 ± 0.3
CUUCAGCAAUAUUACGACCG | 0.185 ± 0.083 | -0.454 ± 0.12
UUCUAGCAAUAUUACGCACU | -1.79 ± 0.29 | -1.69 ± 0.38
AGACAGCAAUAUUACGUAAA | -2.15 ± 0.072 | -1.05 ± 0.08
UAUUAGCAAUAUUACGAGCG | -0.705 ± 0.11 | -0.219 ± 0.15
UAACAGCAAUAUUACGCCAA | -3.04 ± 0.19 | -1.38 ± 0.14
GCCAAGCAAUAUUACGUGGA | -0.758 ± 0.049 | -0.303 ± 0.052
AAUAAGCAAUAUUACGAGUC | -3.1 ± 0.28 | -1.48 ± 0.18
AGCAAGCAAUAUUACGGCAU | -0.0513 ± 0.084 | -0.204 ± 0.092
GGCCAGCAAUAUUACGGUAC | -3.7 ± 0.19 | -2.3 ± 0.15
CCUCAGCAAUAUUACGUGAU | -2.84 ± 0.2 | -2.71 ± 0.43
CCCUAGCAAUAUUACGAUGC | -3.12 ± 0.2 | -2.22 ± 0.31
UACGAGCAAUAUUACGAUUC | -3.01 ± 0.28 | -2.83 ± 0.3
UGGGAGCAAUAUUACGCUCG |  | -1.25 ± 0.46
GCUUAGCAAUAUUACGUGCC | -3.64 ± 0.35 | -0.354 ± 0.14
UGCCAGCAAUAUUACGGCUC | -2.89 ± 0.21 | -1.48 ± 0.23
CGUCAGCAAUAUUACGGACG | -3.63 ± 0.32 | -1.95 ± 0.23
UCGAAGCAAUAUUACGCCUU | -3.4 ± 0.25 | -3.23 ± 0.26
AAAGAGCAAUAUUACGGAUC | -2.89 ± 0.2 | -2.56 ± 0.15
CACCAGCAAUAUUACGGAGU | -3.74 ± 0.18 | -2.54 ± 0.15
GUUGAGCAAUAUUACGAUUG | -4.05 ± 0.32 | -1.87 ± 0.27
AUCGAGCAAUAUUACGGAGG | -1.89 ± 0.39 | -0.942 ± 0.25
